According to FireProtDB (doi:10.1074/jbc.m110728200):

B1: Lysozyme C, P61626 (parent)
chain: MKALIVLGLVLLSVTVQGKVFERCELARTLKRLGMDGYRGISLANWMCLAKWESGYNTRATNYNAGDRSTDYGIFQINSRYWCNDGKTPGAVNACHLSCSALLQDNIADAVACAKRVVRDPQGIRAWVAWRNRCQNRDVRQYVQGCGV

Variants of: B1
Conditions: Homo sapiens; pH 2.65; Thermal; DSC; Gly-HCl 0.05 M; structure 1LZ1; whole UniProt chain shown

Variant	Tm	unfolding enthalpy (calorimetric)	unfolding enthalpy (van 't Hoff)
MKALIVLGLVLLSVTVQGKSFERCELARTLKRLGMDGYRGISLANWMCLAKWESGYNTRATNYNAGDRSTDYGIFQINSRYWCNDGKTPGAVNACHLSCSALLQDNIADAVACAKRVVRDPQGIRAWVAWRNRCQNRDVRQYVQGCGV [V20S]	59.4 °C	103 kcal/mol	103 kcal/mol

Same assay, conditions: Homo sapiens; pH 2.7; 64.9 °C; Thermal; DSC; Gly-HCl 0.05 M; structure 1LZ1; whole UniProt chain shown

Variant	ddG of mutation (higher = less stable)	heat capacity change of unfolding	unfolding enthalpy (calorimetric)
MKALIVLGLVLLSVTVQGKSFERCELARTLKRLGMDGYRGISLANWMCLAKWESGYNTRATNYNAGDRSTDYGIFQINSRYWCNDGKTPGAVNACHLSCSALLQDNIADAVACAKRVVRDPQGIRAWVAWRNRCQNRDVRQYVQGCGV [V20S]	1.41 kcal/mol	1.55 kcal/mol/K	111 kcal/mol
MKALIVLGLVLLSVTVQGKNFERCELARTLKRLGMDGYRGISLANWMCLAKWESGYNTRATNYNAGDRSTDYGIFQINSRYWCNDGKTPGAVNACHLSCSALLQDNIADAVACAKRVVRDPQGIRAWVAWRNRCQNRDVRQYVQGCGV [V20N]	1.34 kcal/mol	1.7 kcal/mol/K	114 kcal/mol
MKALIVLGLVLLSVTVQGKRFERCELARTLKRLGMDGYRGISLANWMCLAKWESGYNTRATNYNAGDRSTDYGIFQINSRYWCNDGKTPGAVNACHLSCSALLQDNIADAVACAKRVVRDPQGIRAWVAWRNRCQNRDVRQYVQGCGV [V20R]	0.38 kcal/mol	1.41 kcal/mol/K	106 kcal/mol

Same assay, conditions: Homo sapiens; pH 2.7; Thermal; DSC; Gly-HCl 0.05 M; structure 1LZ1; whole UniProt chain shown

Variant	Tm	change of melting temperature, mutant - wild type (higher = more stable)
MKALIVLGLVLLSVTVQGKSFERCELARTLKRLGMDGYRGISLANWMCLAKWESGYNTRATNYNAGDRSTDYGIFQINSRYWCNDGKTPGAVNACHLSCSALLQDNIADAVACAKRVVRDPQGIRAWVAWRNRCQNRDVRQYVQGCGV [V20S]	60.5 °C	-4.4 °C
MKALIVLGLVLLSVTVQGKNFERCELARTLKRLGMDGYRGISLANWMCLAKWESGYNTRATNYNAGDRSTDYGIFQINSRYWCNDGKTPGAVNACHLSCSALLQDNIADAVACAKRVVRDPQGIRAWVAWRNRCQNRDVRQYVQGCGV [V20N]	60.8 °C	-4.1 °C
MKALIVLGLVLLSVTVQGKRFERCELARTLKRLGMDGYRGISLANWMCLAKWESGYNTRATNYNAGDRSTDYGIFQINSRYWCNDGKTPGAVNACHLSCSALLQDNIADAVACAKRVVRDPQGIRAWVAWRNRCQNRDVRQYVQGCGV [V20R]	63.6 °C	-1.3 °C

Same assay, conditions: Homo sapiens; pH 2.83; Thermal; DSC; Gly-HCl 0.05 M; structure 1LZ1; whole UniProt chain shown

Variant	Tm	unfolding enthalpy (calorimetric)	unfolding enthalpy (van 't Hoff)
MKALIVLGLVLLSVTVQGKSFERCELARTLKRLGMDGYRGISLANWMCLAKWESGYNTRATNYNAGDRSTDYGIFQINSRYWCNDGKTPGAVNACHLSCSALLQDNIADAVACAKRVVRDPQGIRAWVAWRNRCQNRDVRQYVQGCGV [V20S]	62.9 °C	108 kcal/mol	107 kcal/mol

Same assay, conditions: Homo sapiens; pH 3.09; Thermal; DSC; Gly-HCl 0.05 M; structure 1LZ1; whole UniProt chain shown

Variant	Tm	unfolding enthalpy (calorimetric)	unfolding enthalpy (van 't Hoff)
MKALIVLGLVLLSVTVQGKSFERCELARTLKRLGMDGYRGISLANWMCLAKWESGYNTRATNYNAGDRSTDYGIFQINSRYWCNDGKTPGAVNACHLSCSALLQDNIADAVACAKRVVRDPQGIRAWVAWRNRCQNRDVRQYVQGCGV [V20S]	67.1 °C	115 kcal/mol	114 kcal/mol

Same assay, conditions: Homo sapiens; pH 3.45; Thermal; DSC; Gly-HCl 0.05 M; structure 1LZ1; whole UniProt chain shown

Variant	Tm	unfolding enthalpy (calorimetric)	unfolding enthalpy (van 't Hoff)
MKALIVLGLVLLSVTVQGKSFERCELARTLKRLGMDGYRGISLANWMCLAKWESGYNTRATNYNAGDRSTDYGIFQINSRYWCNDGKTPGAVNACHLSCSALLQDNIADAVACAKRVVRDPQGIRAWVAWRNRCQNRDVRQYVQGCGV [V20S]	73 °C	124 kcal/mol	126 kcal/mol

Same assay, conditions: Homo sapiens; pH 2.6; Thermal; DSC; Gly-HCl 0.05 M; structure 1LZ1; whole UniProt chain shown

Variant	Tm	unfolding enthalpy (calorimetric)	unfolding enthalpy (van 't Hoff)
MKALIVLGLVLLSVTVQGKNFERCELARTLKRLGMDGYRGISLANWMCLAKWESGYNTRATNYNAGDRSTDYGIFQINSRYWCNDGKTPGAVNACHLSCSALLQDNIADAVACAKRVVRDPQGIRAWVAWRNRCQNRDVRQYVQGCGV [V20N]	59.1 °C	104 kcal/mol	99.9 kcal/mol
MKALIVLGLVLLSVTVQGKRFERCELARTLKRLGMDGYRGISLANWMCLAKWESGYNTRATNYNAGDRSTDYGIFQINSRYWCNDGKTPGAVNACHLSCSALLQDNIADAVACAKRVVRDPQGIRAWVAWRNRCQNRDVRQYVQGCGV [V20R]	62.1 °C	103 kcal/mol	110 kcal/mol

Same assay, conditions: Homo sapiens; pH 2.82; Thermal; DSC; Gly-HCl 0.05 M; structure 1LZ1; whole UniProt chain shown

Variant	Tm	unfolding enthalpy (calorimetric)	unfolding enthalpy (van 't Hoff)
MKALIVLGLVLLSVTVQGKNFERCELARTLKRLGMDGYRGISLANWMCLAKWESGYNTRATNYNAGDRSTDYGIFQINSRYWCNDGKTPGAVNACHLSCSALLQDNIADAVACAKRVVRDPQGIRAWVAWRNRCQNRDVRQYVQGCGV [V20N]	62.7 °C	110 kcal/mol	105 kcal/mol

Same assay, conditions: Homo sapiens; pH 3.01; Thermal; DSC; Gly-HCl 0.05 M; structure 1LZ1; whole UniProt chain shown

Variant	Tm	unfolding enthalpy (calorimetric)	unfolding enthalpy (van 't Hoff)
MKALIVLGLVLLSVTVQGKNFERCELARTLKRLGMDGYRGISLANWMCLAKWESGYNTRATNYNAGDRSTDYGIFQINSRYWCNDGKTPGAVNACHLSCSALLQDNIADAVACAKRVVRDPQGIRAWVAWRNRCQNRDVRQYVQGCGV [V20N]	66.3 °C	117 kcal/mol	111 kcal/mol

Same assay, conditions: Homo sapiens; pH 2.88; Thermal; DSC; Gly-HCl 0.05 M; structure 1LZ1; whole UniProt chain shown

Variant	Tm	unfolding enthalpy (calorimetric)	unfolding enthalpy (van 't Hoff)
MKALIVLGLVLLSVTVQGKRFERCELARTLKRLGMDGYRGISLANWMCLAKWESGYNTRATNYNAGDRSTDYGIFQINSRYWCNDGKTPGAVNACHLSCSALLQDNIADAVACAKRVVRDPQGIRAWVAWRNRCQNRDVRQYVQGCGV [V20R]	66.4 °C	108 kcal/mol	115 kcal/mol

Same assay, conditions: Homo sapiens; pH 3.15; Thermal; DSC; Gly-HCl 0.05 M; structure 1LZ1; whole UniProt chain shown

Variant	Tm	unfolding enthalpy (calorimetric)	unfolding enthalpy (van 't Hoff)
MKALIVLGLVLLSVTVQGKRFERCELARTLKRLGMDGYRGISLANWMCLAKWESGYNTRATNYNAGDRSTDYGIFQINSRYWCNDGKTPGAVNACHLSCSALLQDNIADAVACAKRVVRDPQGIRAWVAWRNRCQNRDVRQYVQGCGV [V20R]	70.7 °C	114 kcal/mol	123 kcal/mol

Same assay, conditions: Homo sapiens; pH 3.3; Thermal; DSC; Gly-HCl 0.05 M; structure 1LZ1; whole UniProt chain shown

Variant	Tm	unfolding enthalpy (calorimetric)	unfolding enthalpy (van 't Hoff)
MKALIVLGLVLLSVTVQGKRFERCELARTLKRLGMDGYRGISLANWMCLAKWESGYNTRATNYNAGDRSTDYGIFQINSRYWCNDGKTPGAVNACHLSCSALLQDNIADAVACAKRVVRDPQGIRAWVAWRNRCQNRDVRQYVQGCGV [V20R]	74.1 °C	120 kcal/mol	126 kcal/mol
